Here are results for 23 molecules from patent US20230272011A1 (AVACTA LIFE SCIENCES, published 2023).

Sequences and labels used below:
B1: AVA04-236 (designed binder)
chain: MIPRGLSEAKPATPEIQEIVDKVKPQLEEKTNETYGKLEAVQYKTQVLAKEHGPDSWWSTNYYIKVRAGDNKYMHLKVFNGPQEKNQWVEEADRVLTGYQVDKNKDDELTGF
B2: AVA04-269 (designed binder)
chain: MIPRGLSEAKPATPEIQEIVDKVKPQLEEKTNETYGKLEAVQYKTQVLAKEYGPEEWWSTNYYIKVRAGDNKYMHLKVFNGPGDYEQVLIHADRVLTGYQVDKNKDDELTGF
B3: AVA04-236 XT7 (designed binder)
chain: MIPRGLSEAKPATPEIQEIVDKVKPQLEEKTNETYGKLEAVQYKTQVLAKEHGPDSWWSTNYYIKVRAGDNKYMHLKVFNGPQEKNQWVEEADRVLTGYQVDKNKDDELTGFGGGGSGGGGSGGGGSGGGGSGGGGSGGGGSMIPRGLSEAKPATPEIQEIVDKVKPQLEEKTNETYGKLEAVQYKTQVLANFFQRRWPGSTNYYIKVRAGDNKYMHLKVFNGPWKFRNTDRGADRVLTGYQVDKNKDDELTGFHHHHHH
B4: AVA04-269 XT11 (designed binder)
chain: MIPRGLSEAKPATPEIQEIVDKVKPQLEEKTNETYGKLEAVQYKTQVLAKEYGPEEWWSTNYYIKVRAGDNKYMHLKVFNGPGDYEQVLIHADRVLTGYQVDKNKDDELTGFGGGGSGGGGSGGGGSGGGGSGGGGSGGGGSMIPRGLSEAKPATPEIQEIVDKVKPQLEEKTNETYGKLEAVQYKTQVLANFFQRRWPGSTNYYIKVRAGDNKYMHLKVFNGPWKFRNTDRGADRVLTGYQVDKNKDDELTGFHHHHHH
B5: AVA04-236 XT8 (designed binder)
chain: MIPRGLSEAKPATPEIQEIVDKVKPQLEEKTNETYGKLEAVQYKTQVLAKEHGPDSWWSTNYYIKVRAGDNKYMHLKVFNGPQEKNQWVEEADRVLTGYQVDKNKDDELTGFAEAAAKEAAAKEAAAKEAAAKEAAAKEAAAKMIPRGLSEAKPATPEIQEIVDKVKPQLEEKTNETYGKLEAVQYKTQVLANFFQRRWPGSTNYYIKVRAGDNKYMHLKVFNGPWKFRNTDRGADRVLTGYQVDKNKDDELTGFHHHHHH
B6: AVA04-269 XT12 (designed binder)
chain: MIPRGLSEAKPATPEIQEIVDKVKPQLEEKTNETYGKLEAVQYKTQVLAKEYGPEEWWSTNYYIKVRAGDNKYMHLKVFNGPGDYEQVLIHADRVLTGYQVDKNKDDELTGFAEAAAKEAAAKEAAAKEAAAKEAAAKEAAAKMIPRGLSEAKPATPEIQEIVDKVKPQLEEKTNETYGKLEAVQYKTQVLANFFQRRWPGSTNYYIKVRAGDNKYMHLKVFNGPWKFRNTDRGADRVLTGYQVDKNKDDELTGFHHHHHH
B7: AVA04-261 XT9 (designed binder)
chain: MIPRGLSEAKPATPEIQEIVDKVKPQLEEKTNETYGKLEAVQYKTQVLAHAYGPRDWDSTNYYIKVRAGDNKYMHLKVFNGPPADHVLEEAADRVLTGYQVDKNKDDELTGFGGGGSGGGGSGGGGSGGGGSGGGGSGGGGSMIPRGLSEAKPATPEIQEIVDKVKPQLEEKTNETYGKLEAVQYKTQVLANFFQRRWPGSTNYYIKVRAGDNKYMHLKVFNGPWKFRNTDRGADRVLTGYQVDKNKDDELTGFHHHHHH
B8: AVA04-261 (designed binder)
chain: MIPRGLSEAKPATPEIQEIVDKVKPQLEEKTNETYGKLEAVQYKTQVLAHAYGPRDWDSTNYYIKVRAGDNKYMHLKVFNGPPADHVLEEAADRVLTGYQVDKNKDDELTGF
B9: HSA-41 D89A (designed binder)
chain: MIPRGLSEAKPATPEIQEIVDKVKPQLEEKTNETYGKLEAVQYKTQVLANFFQRRWPGSTNYYIKVRAGDNKYMHLKVFNGPWKFRNTARGADRVLTGYQVDKNKDDELTGFHHHHHH
B10: HSA-41 Q53A (designed binder)
chain: B9 chain with Q53A, A89D
B11: HSA-41 K84A (designed binder)
chain: B9 chain with K84A, A89D
B12: HSA-41 T88A (designed binder)
chain: B9 chain with T88A, A89D
B13: HSA-41 N87A (designed binder)
chain: B9 chain with N87A, A89D
B14: HSA-41 R90A (designed binder)
chain: B9 chain with A89D, R90A
B15: HSA-41 R86A (designed binder)
chain: B9 chain with R86A, A89D
B16: HSA-41 G58A (designed binder)
chain: B9 chain with G58A, A89D
B17: HSA-41 N50A (designed binder)
chain: B9 chain with N50A, A89D
B18: HSA-41 F85A (designed binder)
chain: B9 chain with F85A, A89D
B19: HSA-41 R54A (designed binder)
chain: B9 chain with R54A, A89D
B20: HSA-41 G91A (designed binder)
chain: B9 chain with A89D, G91A
B21: HSA-41 P57A (designed binder)
chain: B9 chain with P57A, A89D
B22: HSA-41 BK (designed binder)
chain: MIPRGLSEAKPATPEIQEIVDKVKPQLEEKTNETYGKLEAVQYKTQVLANFFQRRWPGSTNYYIKVRAGDNKYMHLKVFNGPWKFRNTDRGADRVLTGYQVDKNKDDELTGFAEAAAKEAAAKEAAAKEAAAKEAAAKEAAAKMIPRGLSEAKPATPEIQEIVDKVKPQLEEKTNETYGKLEAVQYKTQVLANFFQRRWPGSTNYYIKVRAGDNKYMHLKVFNGPWKFRNTDRGADRVLTGYQVDKNKDDELTGFHHHHHH
notes: also called ILF homodimer with rigid linker
B23: HSA-41 DI (designed binder)
chain: MIPRGLSEAKPATPEIQEIVDKVKPQLEEKTNETYGKLEAVQYKTQVLANFFQRRWPGSTNYYIKVRAGDNKYMHLKVFNGPWKFRNTDRGADRVLTGYQVDKNKDDELTGFGGGGSGGGGSGGGGSGGGGSGGGGSGGGGSMIPRGLSEAKPATPEIQEIVDKVKPQLEEKTNETYGKLEAVQYKTQVLANFFQRRWPGSTNYYIKVRAGDNKYMHLKVFNGPWKFRNTDRGADRVLTGYQVDKNKDDELTGFHHHHHH
notes: also called ILF homodimer with flexible linker; ILF dimer HSA-41 DI

Substitutions are numbered along the chain they refer to. In names and notes the source's numbering stands.

In general, koff refers to the first-order rate constant of dissociation. A low value points to slow dissociation. For orientation: kon means the second-order rate constant of association. Lower therefore signals slow association.

T1 sequence (Q9NZQ7 19-239, change not shown): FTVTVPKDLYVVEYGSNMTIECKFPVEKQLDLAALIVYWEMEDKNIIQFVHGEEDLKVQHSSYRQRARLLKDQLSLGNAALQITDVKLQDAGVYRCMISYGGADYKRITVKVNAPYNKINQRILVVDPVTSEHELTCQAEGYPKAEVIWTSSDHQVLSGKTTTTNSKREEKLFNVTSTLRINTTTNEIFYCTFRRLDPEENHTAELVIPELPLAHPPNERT

One assay concerns the target T1, human PD-L1-Fc (R&D Systems) chimeric protein (human, UniProt Q9NZQ7 19-239).
T1 construct: Bought reagent; also called rhPD-L1-Fc; huPD-L1; Fc part of the bought chimera not given, not described
The experiment in a line: SPR (Biacore T200), PD-L1-Fc amine-coupled to CM5, Affimer analyte. The protocol:
(§1) ILF dimer production from E. coli was performed as described in Example 3. Briefly, protein was purified using three stages: affinity capture, IEX, and preparative SEC. […] To analyze PD-L1-Fc binding kinetics, a Biacore T200 kinetic analysis was performed using running buffer HBS-EP+ and series S sensor CM5 (GE Healthcare) chip Fc2 immobilized with PD-L1-Fc (R&D Systems) in 10 mM sodium acetate pH 4.0 using amine coupling reagents (GE Healthcare). The concentration titration of ILF AFFIMER® polypeptides was run as analyte at a flow rate of 30 μl/min. […] with 3 mM NaOH (GE healthcare) for 20 seconds at 20 μl/min flow rate. The Fc2-1 data blank was subtracted and fit to a 1:1 Langmuir binding model (Biacore evaluation software; GE) to calculate an apparent KD value.
Background: In SPR one partner is held on a chip, and binding of the other changes the refractive index at the surface.
In the case of B1, the koff was found to be 0.00977 s⁻¹ and the kon turned out to be 1.8e+06 M⁻¹ s⁻¹.
On the same counts, the results for B2 are 0.00345 s⁻¹ and 2.05e+06 M⁻¹ s⁻¹.
On the same counts, the results for B3 are 0.00763 s⁻¹ and 1.57e+06 M⁻¹ s⁻¹.
For the molecule B4, the off-rate constant (koff) is 0.00354 s⁻¹ and the kon was determined as 796000 M⁻¹ s⁻¹.
On the same counts, the results for B5 are 0.00695 s⁻¹ and 1.52e+06 M⁻¹ s⁻¹.
Taken in the same sequence, the figures for B6 were 0.00431 s⁻¹ and 1.14e+06 M⁻¹ s⁻¹.
Molecule B7 came in with an off-rate constant (koff) of 0.00707 s⁻¹ and a kon of 395000 M⁻¹ s⁻¹.
Turning to B8, the koff is 0.0109 s⁻¹ and the on-rate (kon) was determined as 3.68e+06 M⁻¹ s⁻¹.

Another assay has as its target T2, human serum albumin (human, UniProt P02768 25-609).
T2 construct: mature; Bought protein; biotinylated in the Octet and HTRF assays; also called HSA; HuSA
Description: SPR (Biacore), immobilised HSA, Affimer analyte.
On to B3, for which the Kd was 13.3 nM, the koff came to 0.00336 s⁻¹ and the kon was determined as 253000 M⁻¹ s⁻¹.
B4: the Kd is 15.5 nM, the koff stood at 0.00234 s⁻¹ and the kon worked out at 151000 M⁻¹ s⁻¹.
On the same counts, the results for B5 are 9.5 nM, 0.00252 s⁻¹ and 267000 M⁻¹ s⁻¹.
Regarding B6, the Kd worked out at 12.9 nM, the koff turned out to be 0.00228 s⁻¹ and the kon amounted to 177000 M⁻¹ s⁻¹.
Consider B7, for which the Kd came out at 13.3 nM, the koff stood at 0.00357 s⁻¹ and the on-rate (kon) is 269000 M⁻¹ s⁻¹.

The target of the next assay is T1, human PD-L1-Fc (R&D Systems) chimeric …. Description: SPR (Biacore T200), PD-L1-Fc amine-coupled to CM5, Affimer analyte; apparent KD. On the procedure: as §1
On to B1, for which the Kd came out at 5.43 nM.
The same measure, in the same setting: then B2, with 1.68 nM; and B3, with 4.86 nM; and B4, with 4.45 nM.
Consider B5, for which the Kd is 4.57 nM.
In the case of B6, the Kd came to 3.8 nM.
Turning to B7, the Kd was 17.9 nM.
On the same count and under the same terms, next, B8: 2.95 nM.

Another assay addresses T2, human serum albumin. The experiment in a line: SPR (Biacore) binding response to HSA at pH 7.4, Affimer at 50 nM. An excerpt: Final clones were sequence-verified, produced from E. coli, and affinity purified as described in Example 3.
In the case of B9, the “binding response” value is 26.1.
Same read-out and setting: then B10, with 23.5.
Take B11: the “binding response” value is 23.5.
Regarding B12, the “binding response” value was found to be 27.9.
On the same count and under the same terms, next, B13: 25.8; B14: 17.2.
B15: the “binding response” value was 19.1.
The same measure, in the same setting: next, B16: 6.5; B17: 13.
For the molecule B18, the “binding response” value amounted to 26.6.
Still for that read-out and setting: then B19, with 11.9; and B20, with 17.8; and B21, with 23.2.

The next assay deals with T2, human serum albumin. Description: Biacore, immobilised HSA, pH 7.4. The protocol: Affinities for mouse, human, and cynomolgus serum were also measured at pH 7.4 for four (4) AFFIMER® binders using surface plasmon resonance (SPR) (FIG. 5, Table 5). […] A concentration titration of AFFIMER® monomers was run as analyte at a flow rate of 30 μl/min or 60 μl/min. Fc2-1, Fc3-1 and Fc4-1 kinetic data was blank subtracted and fit to a 1:1 Langmuir binding model (BIAcore Evalution software; GE) to calculate KD values.
The AFFIMER® polypeptides were produced and purified from E. coli as described in Example 3.
The molecule B22 gave a Kd of 0.128 nM, an off-rate constant (koff) of 0.000994 s⁻¹ and a kon of 7.74e+06 M⁻¹ s⁻¹.
B23: the Kd is 0.201 nM, the off-rate constant (koff) was found to be 0.000959 s⁻¹ and the on-rate (kon) was found to be 4.77e+06 M⁻¹ s⁻¹.
